We go through two molecules from patent US20210363257A1 (Pieris, published 2021).

Assay [1] addresses T1, huCD137-His (human CD137 with a C-terminal polyhistidine tag) (human, UniProt Q07011 24-186).
T1 construct: Bought; also called huCD137-His-Bio
Kind of assay: dual-binding ELISA, huCD137-His coated, binder titrated, detection with biotinylated huPD-L1-His.

For assay [2], the target named is cyCD137-Fc (cynomolgus CD137 C-terminally fused to Fc) (cynomolgus). Kind of assay: ELISA, cyCD137-Fc coated, detection anti-NGAL-HRP. The protocol: (§1) Recombinant huPD-L1-His or cyPD-L1-His (human or cynomolgus PD-L1 with a C-terminal polyhistidine tag, R&D Systems or Sino Biologics) at the concentration of 1 μg/mL in PBS was coated overnight on microtiter plates at 4° C. After washing with PBS-0.05% T (PBS supplemented with 0.05% (v/v) Tween 20), the plates were blocked with 2% BSA (w/v) in PBS-0.1% T (PBS supplemented with 0.1% (v/v) Tween 20) for 1 h at room temperature. […] Bound molecules under study were detected by incubation with 1:5000 diluted anti-human IgG Fc-HRP (Jackson Laboratory) in PBS-0.1% T-2% BSA. After an additional wash step, fluorogenic HRP substrate (QuantaBlu, Thermo) was added to each well and the fluorescence intensity was detected using a fluorescence microplate reader.
(§2) The same ELISA setup was also employed to determine the binding potency of fusion proteins to CD137, where huCD137-His (human CD137 with C-terminal polyhistidine tag, R&D Systems) or cyCD137-Fc (cynomolgus CD137 C-terminally fused to Fc) was instead coated on a microtiter plate. The testing agents were similarly titrated and bound agents were detected via anti-NGAL-HRP.
A general note: An ELISA detects its analyte on a solid surface through an enzyme-linked reagent.

Assay [3] deals with T2, human CD137 expressed on cells (human, UniProt Q07011 24-255).
T2 construct: whole, on cells; also called Flp-In-CHO::huCD137; NFκB-luc2/CD137 Jurkat cells
Put plainly: flow cytometry, Flp-In-CHO::huCD137 cells. The protocol: (§3) The geometric means of the fluorescence intensity were used to calculate EC₅₀ values using nonlinear regression (shared bottom, SLOPE=1).
(§4) 5×10⁴ cells per well were incubated for 1 h in ice-cold PBS containing 5% fetal calf serum (PBS-FCS). A dilution series of the fusion proteins and control antibodies were added to the cells and incubated for 1 h on ice. Cells were washed twice with PBS and then incubated with a goat anti-hIgG Alexa647-labeled antibody for 30 min on ice. Cells were subsequently washed and analyzed using iQue Flow cytometer (Intellicyte Screener). Mean geometric fluorescent signals were plotted and fitted with Graphpad software using nonlinear regression (shared bottom, SLOPE=1).
(In general: A flow cytometer gives signals particle by particle.)

In assay [4] the target is T1, huCD137-His (human CD137 with a …). Kind of assay: ELISA, huCD137-His coated, detection anti-NGAL-HRP. The protocol: as §1, §2
Assay [5] concerns the target T3, huPD-L1-His (human PD-L1 with a C-terminal polyhistidine tag) (human, UniProt Q9NZQ7 19-239).
T3 construct: Bought; also called biotinylated huPD-L1-His
Put plainly: SPR (Biacore), binder captured by anti-human IgG Fc, huPD-L1-His in solution, 25 C, 1:1 model. Here is the method:
(§5) The binding kinetics and affinity of exemplary fusion proteins to huPD-L1-His or huCD137-His (human PD-L1 or human CD137 with a C-terminal polyhistidine tag, R&D Systems) were determined by surface plasmon resonance (SPR) using a Biacore 8K or a Biacore T200 (GE Healthcare).
(§6) The anti-human IgG Fc antibody (GE Healthcare) was immobilized on a CM5 sensor chip using standard amine chemistry: the carboxyl groups on the chip were activated using 1-ethyl-3-(3-dimethylaminopropyl)-carbodiimide (EDC) and N-hydroxysuccinimide (NHS). Subsequently, anti-human IgG Fc antibody solution (GE Healthcare) at a concentration of 25 μg/mL in 10 mM sodium acetate (pH 5.0) was applied at a flow rate of 5 μL/min until an immobilization level of 6000-10000 resonance units (RU) was achieved. Residual non-reacted NHS-esters were blocked by passing a solution of 1M ethanolamine across the surface. The reference channel was treated in an analogous manner. […] After each capture step, the needle was washed.
(§7) Double referencing was used and the 1:1 binding model was used to fit the raw data.
On the technique in general: In SPR one partner is held on a chip, and binding of the other changes the refractive index at the surface.

Assay [6] has as its target T4, cynomolgus CD137 expressed on cells (cynomolgus, UniProt A9YYE7 24-254).
T4 construct: also called Flp-In-CHO::cynoCD137
Kind of assay: flow cytometry, Flp-In-CHO::cynoCD137 cells. The protocol: as §3, §4

Assay [7] concerns the target T5, biotinylated huCD137-Fc (human CD137 Fc fusion) (human, UniProt Q07011 24-186, biotinylated).
T5 construct: Bought; also called huCD137-Fc-bio
Put plainly: competitive ELISA, antibody SEQ ID NOs: 28 and 29 coated (competitor), 1 nM huCD137-Fc-bio tracer, binder titrated. Here is the method: The plates were washed five times after each incubation step with 100 μL PBS-0.05% T (PBS supplemented with 0.05% (v/v) Tween 20). The plates were blocked with 2% BSA (w/v) in PBS-0.1% T (PBS supplemented with 0.1% (v/v) Tween 20) for 1 h at room temperature and subsequently washed again. […] The mixtures of testing molecules and the tracer were added to the plates and incubated for 20 min at room temperature following by five washing steps with 100 μL PBS-0.05% T. Subsequently, a 1:5000 dilution of ExtrAvidin-HRP (Sigma-Aldrich) in PBS-0.1% T-2% BSA was added to the wells and incubated for 1 h. After an additional wash step, fluorogenic HRP substrate (QuantaBlu, Thermo) was added to each well, and the fluorescence intensity was detected using a fluorescence microplate reader.
Competition data for an exemplary experiment are shown in FIG. 14, where the x-axis represents testing molecule concentration and the y-axis represents the measured trace molecule concentration. The data were fit to a 1:1 sigmoidal curve, where the IC₅₀ value and the maximum signal were free parameters, and the slope was fixed to unity.

Assay [8] concerns the target T1, huCD137-His (human CD137 with a …). Put plainly: SPR (Biacore), binder captured by anti-human IgG Fc, huCD137-His in solution, 25 C, 1:1 model. Here is the method:
as §5, §6, §7

The target of assay [9] is T6, human PD-L1 expressed on cells (human, UniProt Q9NZQ7 19-290).
T6 construct: whole, on cells; also called Flp-In-CHO::huPDL-1; RKO cells
Kind of assay: flow cytometry, Flp-In-CHO::huPDL-1 cells. Here is the method:
as §3, §4

Assay [10] has as its target T7, cynomolgus PD-L1 expressed on cells (cynomolgus).
T7 construct: whole, on cells; also called Flp-In-CHO::cynoPDL-1
Put plainly: flow cytometry, Flp-In-CHO::cynoPDL-1 cells. The protocol: as §3, §4

For assay [11], the target named is T2, human CD137 expressed on cells. Kind of assay: cell-based or functional assay.

B1: fusion protein SEQ ID NOs: 86 and 91 (bispecific antibody, human IgG4 S228P, kappa, F234A L235A)
heavy: not shown
light: EIVLTQSPDTLSVTPKEKVTLTCRASQSIGTNIHWFQQKPGQSPKLLIKYASESISGVPSRFSGSGSGTDFTLTINSVEAEDAATYYCQQSNSWPYTFGQGTKLEIKRTVAAPSVFIFPPSDEQLKSGTASVVCLLNNFYPREAKVQWKVDNALQSGNSQESVTEQDSKDSTYSLSSTLTLSKADYEKHKVYACEVTHQGLSSPVTKSFNRGECGGGGSGGGGSGGGGSQDSTSDLIPAPPLSKVPLQQNFQDNQFHGKWYVVGQAGNIRLREDKDPIKMMATIYELKEDKSYDVTMVKFDDKKCMYDIWTFVPGSQPGEFTLGKIKSFPGHTSSLVRVVSTNYNQHAMVFFKFVFQNREEFYITLYGRTKELTSELKENFIRFSKSLGLPENHIVFPVPIDQCIDG
notes: Antibody-lipocalin mutein fusion, IgG4 S228P backbone; Bivalent to CD137
For B1, the EC50 in assay [1] turned out to be 3.3 nM; in [2], 13 nM; in assay [3] it was 6.48 nM; in assay [4], 0.57 nM; in assay [6] it was 39.1 nM; in assay [9], 1.43 nM. The molecule further gave an EC50 in assay [10] of 1.41 nM. Also, the Kd in assay [5] came to 0.568 nM; in assay [8], 5.11 nM. For the same molecule, the koff in [5] amounted to 0.000748 s⁻¹; in [8], 0.000175 s⁻¹. In addition, the kon in assay [5] was 1.32e+06 M⁻¹ s⁻¹; in assay [8], 34200 M⁻¹ s⁻¹. This molecule also came in with an IC50 in [7] of 0.99 nM. Further, in assay [11], the “EC50 [nM] With RKO cells (CD137 Bioassay, NFκB-luc2/CD137 Jurkat luminescence)” value turned out to be 0.0889 nM.

B2: fusion protein SEQ ID NOs: 90 and 87 (bispecific antibody, human IgG4 S228P, kappa, F234A L235A)
heavy: not shown
light: EIVLTQSPDTLSVTPKEKVTLTCRASQSIGTNIHWFQQKPGQSPKLLIKYASESISGVPSRFSGSGSGTDFTLTINSVEAEDAATYYCQQSNSWPYTFGQGTKLEIKRTVAAPSVFIFPPSDEQLKSGTASVVCLLNNFYPREAKVQWKVDNALQSGNSQESVTEQDSKDSTYSLSSTLTLSKADYEKHKVYACEVTHQGLSSPVTKSFNRGEC
notes: Bivalent to CD137
As to B2, the EC50 was 2.9 nM in [1]; 5.9 nM in assay [2]; 3.74 nM in assay [3]; 0.28 nM in assay [4]; 51.4 nM in assay [6]; 3.64 nM in assay [9]. A half-maximal effect in assay [10] (EC50) was put at 4.48 nM. For the same molecule, the Kd in [5] was 0.592 nM; in assay [8], 6.48 nM. Moreover, the koff in assay [5] is 0.000769 s⁻¹; in assay [8], 0.000255 s⁻¹. The kon in assay [5] came out at 1.3e+06 M⁻¹ s⁻¹; in assay [8], 39300 M⁻¹ s⁻¹. The molecule also had an IC50 in assay [7] of 1.1 nM. Besides, the “EC50 [nM] With RKO cells (CD137 Bioassay, NFκB-luc2/CD137 Jurkat luminescence)” value in assay [11] is 0.0809 nM.

For orientation: EC50 means the concentration at which the effect is half-maximal. The low end stands for higher potency in that assay, the high end for lower potency in that assay. As usually defined, the Kd is the constant that tells how readily two partners part at equilibrium. A high value points to weaker binding. For orientation: koff means the rate constant with which the complex falls apart. Read a high koff as fast dissociation. As usually defined, the kon is the second-order rate constant of association. Higher therefore signals faster complex formation. By IC50 is commonly meant the point on the concentration scale where inhibition reaches its midpoint. Higher therefore signals weaker potency.
